Data on 40 molecules can be found in patent US20180155451A1 (published 2018).

For the test, the target named is T1, FcγRIIa H (human, UniProt P12318 34-217).
T1 construct: extracellular domain; also called FcgRIIa H type; 2aH; not shown: His tag at the C terminus
T1 sequence (looked up): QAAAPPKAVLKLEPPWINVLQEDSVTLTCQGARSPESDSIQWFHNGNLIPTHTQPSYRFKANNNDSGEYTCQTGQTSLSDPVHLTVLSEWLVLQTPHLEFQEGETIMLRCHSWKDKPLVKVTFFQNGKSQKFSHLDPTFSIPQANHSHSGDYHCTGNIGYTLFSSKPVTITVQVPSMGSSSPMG
Briefly: SPR Biacore, relative binding.

B1: GpH7-B3 variant T335_10E/GpL16-k0 (antibody, human IgG1, kappa)
heavy: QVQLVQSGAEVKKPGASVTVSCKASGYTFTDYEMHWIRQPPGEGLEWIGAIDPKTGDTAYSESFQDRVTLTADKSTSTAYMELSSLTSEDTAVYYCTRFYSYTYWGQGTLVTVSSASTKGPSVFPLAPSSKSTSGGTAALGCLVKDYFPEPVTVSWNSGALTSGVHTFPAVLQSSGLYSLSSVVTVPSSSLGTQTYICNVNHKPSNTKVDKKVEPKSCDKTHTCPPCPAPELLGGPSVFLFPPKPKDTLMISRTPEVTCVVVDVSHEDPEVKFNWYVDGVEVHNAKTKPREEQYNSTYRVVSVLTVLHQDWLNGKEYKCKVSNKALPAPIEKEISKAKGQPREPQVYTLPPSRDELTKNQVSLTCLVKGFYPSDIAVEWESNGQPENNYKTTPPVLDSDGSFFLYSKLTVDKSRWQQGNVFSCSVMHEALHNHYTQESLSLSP
light: DIVMTQSPLSLPVTPGEPASISCQASESLVHSNRNTYLHWYLQKPGQSPQLLIYKVSNRFSGVPDRFSGSGSGTDFTLKISRVEAEDVGVYYCSQNTHVPPTFGQGTKVEIERTVAAPSVFIFPPSDEQLKSGTASVVCLLNNFYPREAKVQWKVDNALQSGNSQESVTEQDSKDSTYSLSSTLTLSKADYEKHKVYACEVTHQGLSSPVTKSFNRGEC
notes: also called Ho Ab T335_10E
On to B1, for which the Ho/Con_2aH is 105 % of GpH7-B3/GpL16-k0 (=100).

B2: GpH7-A5/GpH7-B3 variant I332_02A/GpL16-k0 (antibody, human IgG1, kappa)
heavy 1: not shown
heavy 2: not shown
light: B1 light
notes: also called He Ab I332_02A
On to B2, for which the He/Con_2aH is 111 % of GpH7-A5/GpH7-B3/GpL16-k0 (=100).

B3: GpH7-A5/GpH7-B3 variant K334_03V/GpL16-k0 (antibody, human IgG1, kappa)
heavy 1: not shown
heavy 2: not shown
light: B1 light
notes: also called He Ab K334_03V
For the molecule B3, the He/Con_2aH was 109 % of GpH7-A5/GpH7-B3/GpL16-k0 (=100).

B4: GpH7-A5/GpH7-B3 variant K334_04F/GpL16-k0 (antibody, human IgG1, kappa)
heavy 1: not shown
heavy 2: not shown
light: B1 light
notes: also called He Ab K334_04F
As to B4, the He/Con_2aH is 106 % of GpH7-A5/GpH7-B3/GpL16-k0 (=100).

B5: GpH7-A5/GpH7-B3 variant K334_15Y/GpL16-k0 (antibody, human IgG1, kappa)
heavy 1: not shown
heavy 2: not shown
light: B1 light
notes: also called He Ab K334_15Y
Turning to B5, the He/Con_2aH was 106 % of GpH7-A5/GpH7-B3/GpL16-k0 (=100).

B6: GpH7-B3 variant T335_15Y/GpL16-k0 (antibody, human IgG1, kappa)
heavy: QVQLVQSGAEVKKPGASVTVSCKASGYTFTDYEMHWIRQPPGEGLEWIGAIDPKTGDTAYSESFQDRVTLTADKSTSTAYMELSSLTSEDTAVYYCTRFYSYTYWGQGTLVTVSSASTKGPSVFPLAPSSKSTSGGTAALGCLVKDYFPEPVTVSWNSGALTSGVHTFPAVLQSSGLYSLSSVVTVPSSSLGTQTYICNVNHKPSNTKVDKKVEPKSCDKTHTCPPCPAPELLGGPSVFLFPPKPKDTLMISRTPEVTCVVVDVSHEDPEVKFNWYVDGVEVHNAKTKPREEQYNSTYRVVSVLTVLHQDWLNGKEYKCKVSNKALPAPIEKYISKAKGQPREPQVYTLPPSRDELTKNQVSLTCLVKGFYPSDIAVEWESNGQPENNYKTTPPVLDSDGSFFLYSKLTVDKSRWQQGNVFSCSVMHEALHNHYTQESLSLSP
light: B1 light
notes: also called Ho Ab T335_15Y
In the case of B6, the Ho/Con_2aH is 102 % of GpH7-B3/GpL16-k0 (=100).

B7: GpH7-A5/GpH7-B3 variant I332_09D/GpL16-k0 (antibody, human IgG1, kappa)
heavy 1: not shown
heavy 2: not shown
light: B1 light
notes: also called He Ab I332_09D
With B7, the He/Con_2aH was 118 % of GpH7-A5/GpH7-B3/GpL16-k0 (=100).

B8: GpH7-A5/GpH7-B3 variant I336_06M/GpL16-k0 (antibody, human IgG1, kappa)
heavy 1: not shown
heavy 2: not shown
light: B1 light
notes: also called He Ab I336_06M
On to B8, for which the He/Con_2aH is 106 % of GpH7-A5/GpH7-B3/GpL16-k0 (=100).

B9: GpH7-A5/GpH7-B3 variant G236_10E/GpL16-k0 (antibody, human IgG1, kappa)
heavy 1: not shown
heavy 2: not shown
light: B1 light
notes: also called He Ab G236_10E
Consider B9, for which the He/Con_2aH is 111 % of GpH7-A5/GpH7-B3/GpL16-k0 (=100).

B10: GpH7-B3 variant T335_16H/GpL16-k0 (antibody, human IgG1, kappa)
heavy: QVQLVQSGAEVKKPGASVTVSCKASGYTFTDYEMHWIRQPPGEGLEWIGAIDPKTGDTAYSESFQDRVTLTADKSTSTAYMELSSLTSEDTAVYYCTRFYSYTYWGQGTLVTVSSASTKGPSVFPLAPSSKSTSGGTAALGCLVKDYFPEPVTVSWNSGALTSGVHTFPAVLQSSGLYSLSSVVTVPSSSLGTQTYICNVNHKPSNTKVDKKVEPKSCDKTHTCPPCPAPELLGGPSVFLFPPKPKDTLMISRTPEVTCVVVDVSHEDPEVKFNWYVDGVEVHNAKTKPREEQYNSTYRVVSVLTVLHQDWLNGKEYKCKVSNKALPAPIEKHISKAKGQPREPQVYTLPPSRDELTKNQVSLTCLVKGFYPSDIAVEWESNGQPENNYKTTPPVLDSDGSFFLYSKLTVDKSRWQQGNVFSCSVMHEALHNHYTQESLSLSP
light: B1 light
notes: also called Ho Ab T335_16H
In the case of B10, the Ho/Con_2aH was 100 % of GpH7-B3/GpL16-k0 (=100).

B11: GpH7-A5/GpH7-B3 variant I332_03V/GpL16-k0 (antibody, human IgG1, kappa)
heavy 1: not shown
heavy 2: not shown
light: B1 light
notes: also called He Ab I332_03V
For B11, the He/Con_2aH is 105 % of GpH7-A5/GpH7-B3/GpL16-k0 (=100).

B12: GpH7-A5/GpH7-B3 variant K334_07I/GpL16-k0 (antibody, human IgG1, kappa)
heavy 1: not shown
heavy 2: not shown
light: B1 light
notes: also called He Ab K334_07I
As to B12, the He/Con_2aH was 110 % of GpH7-A5/GpH7-B3/GpL16-k0 (=100).

B13: GpH7-A5/GpH7-B3 variant G236_07I/GpL16-k0 (antibody, human IgG1, kappa)
heavy 1: not shown
heavy 2: not shown
light: B1 light
notes: also called He Ab G236_07I
For B13, the He/Con_2aH is 115 % of GpH7-A5/GpH7-B3/GpL16-k0 (=100).

B14: GpH7-A5/GpH7-B3 variant H268_18N/GpL16-k0 (antibody, human IgG1, kappa)
heavy 1: not shown
heavy 2: not shown
light: B1 light
notes: also called He Ab H268_18N
In the case of B14, the He/Con_2aH is 112 % of GpH7-A5/GpH7-B3/GpL16-k0 (=100).

B15: GpH7-A5/GpH7-B3 variant K326_10E/GpL16-k0 (antibody, human IgG1, kappa)
heavy 1: not shown
heavy 2: not shown
light: B1 light
notes: also called He Ab K326_10E
In the case of B15, the He/Con_2aH is 102 % of GpH7-A5/GpH7-B3/GpL16-k0 (=100).

B16: GpH7-A5/GpH7-B3 variant G236_03V/GpL16-k0 (antibody, human IgG1, kappa)
heavy 1: not shown
heavy 2: not shown
light: B1 light
notes: also called He Ab G236_03V
As for B16, the He/Con_2aH is 119 % of GpH7-A5/GpH7-B3/GpL16-k0 (=100).

B17: GpH7-A5/GpH7-B3 variant K326_14T/GpL16-k0 (antibody, human IgG1, kappa)
heavy 1: not shown
heavy 2: not shown
light: B1 light
notes: also called He Ab K326_14T
As to B17, the He/Con_2aH is 114 % of GpH7-A5/GpH7-B3/GpL16-k0 (=100).

B18: GpH7-A5/GpH7-B3 variant K334_14T/GpL16-k0 (antibody, human IgG1, kappa)
heavy 1: not shown
heavy 2: not shown
light: B1 light
notes: also called He Ab K334_14T
Turning to B18, the He/Con_2aH was 103 % of GpH7-A5/GpH7-B3/GpL16-k0 (=100).

B19: GpH7-A5/GpH7-B3 variant I332_18N/GpL16-k0 (antibody, human IgG1, kappa)
heavy 1: not shown
heavy 2: not shown
light: B1 light
notes: also called He Ab I332_18N
With B19, the He/Con_2aH was 110 % of GpH7-A5/GpH7-B3/GpL16-k0 (=100).

B20: GpH7-B3 variant T335_13S/GpL16-k0 (antibody, human IgG1, kappa)
heavy: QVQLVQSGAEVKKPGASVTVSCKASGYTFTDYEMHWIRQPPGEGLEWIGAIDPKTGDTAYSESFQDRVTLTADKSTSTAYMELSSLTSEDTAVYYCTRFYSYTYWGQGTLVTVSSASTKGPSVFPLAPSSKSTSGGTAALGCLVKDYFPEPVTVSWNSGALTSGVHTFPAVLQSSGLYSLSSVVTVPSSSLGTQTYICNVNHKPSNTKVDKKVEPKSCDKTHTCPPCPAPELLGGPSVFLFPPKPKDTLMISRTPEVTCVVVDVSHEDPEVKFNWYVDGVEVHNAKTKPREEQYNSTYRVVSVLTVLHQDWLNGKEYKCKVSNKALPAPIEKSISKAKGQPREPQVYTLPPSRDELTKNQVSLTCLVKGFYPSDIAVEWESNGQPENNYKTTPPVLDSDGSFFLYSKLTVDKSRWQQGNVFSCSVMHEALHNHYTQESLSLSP
light: B1 light
notes: also called Ho Ab T335_13S
On to B20, for which the Ho/Con_2aH is 101 % of GpH7-B3/GpL16-k0 (=100).

B21: GpH7-A5/GpH7-B3 variant H268_09D/GpL16-k0 (antibody, human IgG1, kappa)
heavy 1: not shown
heavy 2: not shown
light: B1 light
notes: also called He Ab H268_09D
On to B21, for which the He/Con_2aH is 133 % of GpH7-A5/GpH7-B3/GpL16-k0 (=100).

B22: GpH7-A5/GpH7-B3 variant I332_04F/GpL16-k0 (antibody, human IgG1, kappa)
heavy 1: not shown
heavy 2: not shown
light: B1 light
notes: also called He Ab I332_04F
Take B22: the He/Con_2aH was 104 % of GpH7-A5/GpH7-B3/GpL16-k0 (=100).

B23: GpH7-A5/GpH7-B3 variant I332_16H/GpL16-k0 (antibody, human IgG1, kappa)
heavy 1: not shown
heavy 2: not shown
light: B1 light
notes: also called He Ab I332_16H
With B23, the He/Con_2aH was 109 % of GpH7-A5/GpH7-B3/GpL16-k0 (=100).

B24: GpH7-A5/GpH7-B3 variant K334_08L/GpL16-k0 (antibody, human IgG1, kappa)
heavy 1: not shown
heavy 2: not shown
light: B1 light
notes: also called He Ab K334_08L
B24: the He/Con_2aH was 104 % of GpH7-A5/GpH7-B3/GpL16-k0 (=100).

B25: GpH7-A5/GpH7-B3 variant K326_09D/GpL16-k0 (antibody, human IgG1, kappa)
heavy 1: not shown
heavy 2: not shown
light: B1 light
notes: also called He Ab K326_09D
On to B25, for which the He/Con_2aH was 110 % of GpH7-A5/GpH7-B3/GpL16-k0 (=100).

B26: GpH7-A5/GpH7-B3 variant I336_08L/GpL16-k0 (antibody, human IgG1, kappa)
heavy 1: not shown
heavy 2: not shown
light: B1 light
notes: also called He Ab I336_08L
For the molecule B26, the He/Con_2aH was 106 % of GpH7-A5/GpH7-B3/GpL16-k0 (=100).

B27: GpH7-A5/GpH7-B3 variant A330_12R/GpL16-k0 (antibody, human IgG1, kappa)
heavy 1: not shown
heavy 2: not shown
light: B1 light
notes: also called He Ab A330_12R
For B27, the He/Con_2aH was 108 % of GpH7-A5/GpH7-B3/GpL16-k0 (=100).

B28: GpH7-A5/GpH7-B3 variant K326_06M/GpL16-k0 (antibody, human IgG1, kappa)
heavy 1: not shown
heavy 2: not shown
light: B1 light
notes: also called He Ab K326_06M
On to B28, for which the He/Con_2aH was 103 % of GpH7-A5/GpH7-B3/GpL16-k0 (=100).

B29: GpH7-A5/GpH7-B3 variant I332_19Q/GpL16-k0 (antibody, human IgG1, kappa)
heavy 1: not shown
heavy 2: not shown
light: B1 light
notes: also called He Ab I332_19Q
With B29, the He/Con_2aH is 108 % of GpH7-A5/GpH7-B3/GpL16-k0 (=100).

B30: GpH7-A5/GpH7-B3 variant K334_16H/GpL16-k0 (antibody, human IgG1, kappa)
heavy 1: not shown
heavy 2: not shown
light: B1 light
notes: also called He Ab K334_16H
Turning to B30, the He/Con_2aH is 104 % of GpH7-A5/GpH7-B3/GpL16-k0 (=100).

B31: GpH7-A5/GpH7-B3 variant I332_06M/GpL16-k0 (antibody, human IgG1, kappa)
heavy 1: not shown
heavy 2: not shown
light: B1 light
notes: also called He Ab I332_06M
B31: the He/Con_2aH was 110 % of GpH7-A5/GpH7-B3/GpL16-k0 (=100).

B32: GpH7-A5/GpH7-B3 variant I332_15Y/GpL16-k0 (antibody, human IgG1, kappa)
heavy 1: not shown
heavy 2: not shown
light: B1 light
notes: also called He Ab I332_15Y
On to B32, for which the He/Con_2aH is 115 % of GpH7-A5/GpH7-B3/GpL16-k0 (=100).

B33: GpH7-A5/GpH7-B3 variant L235_20W/GpL16-k0 (antibody, human IgG1, kappa)
heavy 1: not shown
heavy 2: not shown
light: B1 light
notes: also called He Ab L235_20W
B33: the He/Con_2aH is 118 % of GpH7-A5/GpH7-B3/GpL16-k0 (=100).

B34: GpH7-A5/GpH7-B3 variant H268_10E/GpL16-k0 (antibody, human IgG1, kappa)
heavy 1: not shown
heavy 2: not shown
light: B1 light
notes: also called He Ab H268_10E
Take B34: the He/Con_2aH was 124 % of GpH7-A5/GpH7-B3/GpL16-k0 (=100).

B35: GpH7-A5/GpH7-B3 variant H268_13S/GpL16-k0 (antibody, human IgG1, kappa)
heavy 1: not shown
heavy 2: not shown
light: B1 light
notes: also called He Ab H268_13S
As to B35, the He/Con_2aH was 112 % of GpH7-A5/GpH7-B3/GpL16-k0 (=100).

B36: GpH7-B3 variant T335_19Q/GpL16-k0 (antibody, human IgG1, kappa)
heavy: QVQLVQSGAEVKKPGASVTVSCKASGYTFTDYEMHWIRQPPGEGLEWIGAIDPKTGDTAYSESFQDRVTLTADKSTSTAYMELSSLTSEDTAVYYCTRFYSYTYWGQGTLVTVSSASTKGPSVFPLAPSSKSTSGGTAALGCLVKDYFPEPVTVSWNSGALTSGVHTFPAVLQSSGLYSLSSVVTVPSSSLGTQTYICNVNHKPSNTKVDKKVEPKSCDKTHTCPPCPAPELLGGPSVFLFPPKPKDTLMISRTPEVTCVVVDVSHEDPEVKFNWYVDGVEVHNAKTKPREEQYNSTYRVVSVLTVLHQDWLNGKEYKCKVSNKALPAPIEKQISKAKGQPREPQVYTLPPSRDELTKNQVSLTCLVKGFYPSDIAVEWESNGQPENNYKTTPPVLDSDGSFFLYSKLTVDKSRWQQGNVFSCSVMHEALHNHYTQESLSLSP
light: B1 light
notes: also called Ho Ab T335_19Q
On to B36, for which the Ho/Con_2aH is 103 % of GpH7-B3/GpL16-k0 (=100).

B37: GpH7-A5/GpH7-B3 variant I332_14T/GpL16-k0 (antibody, human IgG1, kappa)
heavy 1: not shown
heavy 2: not shown
light: B1 light
notes: also called He Ab I332_14T
As for B37, the He/Con_2aH is 115 % of GpH7-A5/GpH7-B3/GpL16-k0 (=100).

B38: GpH7-A5/GpH7-B3 variant I332_10E/GpL16-k0 (antibody, human IgG1, kappa)
heavy 1: not shown
heavy 2: not shown
light: B1 light
notes: also called He Ab I332_10E
With B38, the He/Con_2aH is 108 % of GpH7-A5/GpH7-B3/GpL16-k0 (=100).

B39: GpH7-A5/GpH7-B3 variant K326_19Q/GpL16-k0 (antibody, human IgG1, kappa)
heavy 1: not shown
heavy 2: not shown
light: B1 light
notes: also called He Ab K326_19Q
Regarding B39, the He/Con_2aH is 101 % of GpH7-A5/GpH7-B3/GpL16-k0 (=100).

B40: GpH7-A5/GpH7-B3 variant I332_13S/GpL16-k0 (antibody, human IgG1, kappa)
heavy 1: not shown
heavy 2: not shown
light: B1 light
notes: also called He Ab I332_13S
Turning to B40, the He/Con_2aH is 110 % of GpH7-A5/GpH7-B3/GpL16-k0 (=100).
